Results: patent US20210181204A1 (SYNGENTA PARTICIPATIONS, published 2021)

Legend:
[1] = biological target: T1, mCry3A insecticidal protein (Bacillus thuringiensis subsp. …, UniProt P0A379 48-644, limits assumed); assay: Bio-Layer Interferometry, target 15.6 nM to 1 uM
T1 construct: also called modified Cry3A
T1 sequence: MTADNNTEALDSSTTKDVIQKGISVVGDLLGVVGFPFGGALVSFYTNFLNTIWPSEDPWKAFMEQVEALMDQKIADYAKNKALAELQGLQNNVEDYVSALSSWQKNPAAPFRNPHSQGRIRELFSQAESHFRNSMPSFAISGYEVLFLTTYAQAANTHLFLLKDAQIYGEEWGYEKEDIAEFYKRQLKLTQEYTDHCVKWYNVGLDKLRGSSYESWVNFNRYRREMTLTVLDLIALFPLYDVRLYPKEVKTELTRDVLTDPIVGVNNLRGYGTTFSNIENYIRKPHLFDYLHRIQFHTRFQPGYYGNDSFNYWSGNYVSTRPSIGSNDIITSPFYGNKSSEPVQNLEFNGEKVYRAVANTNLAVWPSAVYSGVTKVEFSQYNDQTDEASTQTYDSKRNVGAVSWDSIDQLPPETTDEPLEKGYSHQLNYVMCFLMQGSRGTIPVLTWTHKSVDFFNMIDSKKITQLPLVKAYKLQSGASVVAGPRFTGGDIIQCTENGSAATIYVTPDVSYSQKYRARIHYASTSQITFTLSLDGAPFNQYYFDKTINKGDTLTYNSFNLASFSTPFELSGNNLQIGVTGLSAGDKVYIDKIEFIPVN

[2] = biological target: T1, mCry3A insecticidal protein; assay: direct ELISA: mCry3A coated at 1 ug/ml, RGS-His HRP detection
[3] = biological target: T1, mCry3A insecticidal protein; assay: direct ELISA on coated mCry3A
[4] = biological target: eCry3.1Ab hybrid insecticidal protein; assay: Bio-Layer Interferometry, target 15.6 nM to 1 uM
[5] = biological target: T2, Cry1Ab insecticidal protein (Bacillus thuringiensis, UniProt P0A370 1-615); assay: direct ELISA: protein coated at 500 ng/ml, 10 nM tagged synNAPS with SA-AP
[6] = biological target: Cry1Ab.1Ca insecticidal protein; assay: as above
[7] = biological target: Cry1Ai insecticidal protein; assay: as above
[8] = biological target: Cry1Aa insecticidal protein (Bacillus thuringiensis subsp. aizawai, UniProt P0A367 12-1176); assay: direct ELISA, coated protein, SA-AP, 405 nm
[9] = biological target: eCry3.1Ab hybrid insecticidal protein; assay: direct ELISA, coated protein, SA-AP, 405 nm
[10] = biological target: T1, mCry3A insecticidal protein; assay: direct ELISA, coated protein, SA-AP, 405 nm
[11] = biological target: Cry1Ab.1Ca insecticidal protein; assay: direct ELISA, coated protein, SA-AP, 405 nm
[12] = biological target: Cry1Ai insecticidal protein; assay: direct ELISA, coated protein, SA-AP, 405 nm
[13] = biological target: T1, mCry3A insecticidal protein; assay: direct ELISA: protein coated at 500 ng/ml, 10 nM tagged synNAPS with SA-AP
[14] = biological target: T2, Cry1Ab insecticidal protein; assay: direct ELISA, coated protein, SA-AP, 405 nm
[15] = biological target: T2, Cry1Ab insecticidal protein; assay: Bio-Layer Interferometry, target 15.6 nM to 1 uM
[16] = biological target: T2, Cry1Ab insecticidal protein; assay: direct ELISA on coated Cry1Ab, RGS-His HRP
[17] = biological target: T2, Cry1Ab insecticidal protein; assay: direct ELISA: Cry1Ab coated at 1 ug/ml, RGS-His HRP detection

B1: synNAPS-7 ligand (designed binder)
chain: MVKVKFKVHGKEKEVDTSKILAVARWGKAVIFAYDDNGKHGRGQVSEKDAPKELLDMLARAEREKK
binding result [1]: binds

B2: synNAPS9 variant Q8A (designed binder)
chain: RGSHHHHHHGSMVKVKFAAGGEEKEVDTSKIYRVPRHGKIVFFMYDDNGKGGFGHVTEKDAPKELLDMLARAEREKK
Binding (OD 450 nm) [2]: 2.8 OD 450 nm | binding affinity as percent of SEQ ID NO:17 [3]: ~112%

B3: synNAPS9 variant M33A (designed binder)
chain: RGSHHHHHHGSMVKVKFAQGGEEKEVDTSKIYRVPRHGKIVFFAYDDNGKGGFGHVTEKDAPKELLDMLARAEREKK
Binding (OD 450 nm) [2]: 2.8 OD 450 nm | binding affinity as percent of SEQ ID NO:17 [3]: ~112%

B4: synNAPS9 variant T46A (designed binder)
chain: RGSHHHHHHGSMVKVKFAQGGEEKEVDTSKIYRVPRHGKIVFFMYDDNGKGGFGHVAEKDAPKELLDMLARAEREKK
Binding (OD 450 nm) [2]: 2.8 OD 450 nm | binding affinity as percent of SEQ ID NO:17 [3]: ~112%

B5: synNAPS-8 ligand (designed binder)
chain: MVKVKFHGRGEEKEVDTSKIFWVYRDGKRVLFRYDDNGKRGFGSVPEKDAPKELLDMLARAEREKK
binding result [1]: binds

B6: synNAPS-10 ligand (designed binder)
chain: MVKVKFLMKGEEKEVDTSKIKWVNRHGKYVAFYYDDNGKTGGGEVREKDAPKELLDMLARAEREKK
binding result [4]: binds

B7: synNAPS-11 ligand (designed binder)
chain: MVKVKFGLGGEEKEVDTSKIRRVLRLGKLVSFTYDDNGKIGLGDVHEKDAPKELLDMLARAEREKK
binding result [4]: binds

B8: synNAPS-12 ligand (designed binder)
chain: MVKVKFKLTGEEKEVDTSKIQWVARFGKFVDFLYDDNGKTGWGWVYEKDAPKELLDMLARAEREKK
binding result [4]: binds

B9: synNAPS-14 ligand (designed binder)
chain: MVKVKFKYKGEEKEVDTSKIIFVYRFGKFVMFIYDDNGKTGHGDVREKDAPKELLDMLARAEREKK
binding result [4]: binds

B10: synNAPS-4tag ligand (designed binder)
chain: MRGSHHHHHHGSVKVKFKYKGEEKEVDTSKISYVQRAGKSVYFNYDDNGKTGGGRVFEKDAPKELLDMLARAEREKKLGSGLNDIFEAQKIEWH
modifications: in vivo biotinylation (E. coli BirA strain) on the C-terminal avidin-tag
notes: also called tagged synNAPS 4
Binding to Insecticidal Protein (read at 405 nm) [5]: 1.75 absorbance 405 nm | Binding to Insecticidal Protein (read at 405 nm) [6]: 0.75 absorbance 405 nm | Binding to Insecticidal Protein (read at 405 nm) [7]: 2.6 absorbance 405 nm | binding result [8]: no binding (tested: 10 nM) | binding result [9]: no binding (tested: 10 nM) | binding result [10]: no binding (tested: 10 nM)

B11: synNAPS-3tag ligand (designed binder)
chain: MRGSHHHHHHGSVKVKFRWGGEEKEVDTSKIWYVARVGKWVLFGYDDNGKRGAGRVREKDAPKELLDMLARAEREKKLGSGLNDIFEAQKIEWH
modifications: in vivo biotinylation (E. coli BirA strain) on the C-terminal avidin-tag
notes: also called tagged synNAPS 3
Binding to Insecticidal Protein (read at 405 nm) [5]: 0.75 absorbance 405 nm | Binding to Insecticidal Protein (read at 405 nm) [7]: 1.5 absorbance 405 nm | binding result [8]: no binding (tested: 10 nM) | binding result [9]: no binding (tested: 10 nM) | binding result [11]: no binding (tested: 10 nM) | binding result [10]: no binding (tested: 10 nM)

B12: synNAPS-5tag ligand (designed binder)
chain: MRGSHHHHHHGSVKVKFVLKGEEKEVDTSKITYVARYGKFVQFDYDDNGKFGAGVVLEKDAPKELLDMLARAEREKKLGSGLNDIFEAQKIEWH
modifications: in vivo biotinylation (E. coli BirA strain) on the C-terminal avidin-tag
notes: also called tagged synNAPS 5
Binding to Insecticidal Protein (read at 405 nm) [5]: 1.1 absorbance 405 nm | Binding to Insecticidal Protein (read at 405 nm) [6]: 1.6 absorbance 405 nm | binding result [8]: no binding (tested: 10 nM) | binding result [9]: no binding (tested: 10 nM) | binding result [10]: no binding (tested: 10 nM) | binding result [12]: no binding (tested: 10 nM)

B13: synNAPS-7tag ligand (designed binder)
chain: MRGSHHHHHHGSVKVKFKVHGKEKEVDTSKILAVARWGKAVIFAYDDNGKHGRGQVSEKDAPKELLDMLARAEREKKLGSGLNDIFEAQKIEWH
modifications: in vivo biotinylation (E. coli BirA strain) on the C-terminal avidin-tag
notes: also called tagged synNAPS 7
Binding to Insecticidal Protein (read at 405 nm) [13]: 0.7 absorbance 405 nm | binding result [8]: no binding (tested: 10 nM) | binding result [9]: no binding (tested: 10 nM) | binding result [14]: no binding (tested: 10 nM) | binding result [11]: no binding (tested: 10 nM) | binding result [12]: no binding (tested: 10 nM)

B14: synNAPS-8tag ligand (designed binder)
chain: MRGSHHHHHHGSVKVKFHGRGEEKEVDTSKIFWVYRDGKRVLFRYDDNGKRGFGSVPEKDAPKELLDMLARAEREKKLGSGLNDIFEAQKIEWH
modifications: chain 1: biotinylated in vivo on the C-terminal avidin-tag (E. coli BirA strain). The patent does not name the residue; it is presumably the tag's Lys, pos 90, written K.
notes: also called tagged synNAPS 8
Binding to Insecticidal Protein (read at 405 nm) [13]: 1.6 absorbance 405 nm | binding result [8]: no binding (tested: 10 nM) | binding result [9]: no binding (tested: 10 nM) | binding result [14]: no binding (tested: 10 nM) | binding result [11]: no binding (tested: 10 nM) | binding result [12]: no binding (tested: 10 nM)

B15: synNAPS-1 ligand (designed binder)
chain: MVKVKFGPWGEEKEVDTSKIVDVWRWGKYVDFFYDDNGKVGIGSVTEKDAPKELLDMLARAEREKK
binding result [15]: binds

B16: synNAPS-3 ligand (designed binder)
chain: MVKVKFRWGGEEKEVDTSKIWYVARVGKWVLFGYDDNGKRGAGRVREKDAPKELLDMLARAEREKK
binding result [15]: binds

B17: synNAPS-4 ligand (designed binder)
chain: MVKVKFKYKGEEKEVDTSKISYVQRAGKSVYFNYDDNGKTGGGRVFEKDAPKELLDMLARAEREKK
binding result [15]: binds

B18: synNAPS-5 ligand (designed binder)
chain: MVKVKFVLKGEEKEVDTSKITYVARYGKFVQFDYDDNGKFGAGVVLEKDAPKELLDMLARAEREKK
binding result [15]: binds

B19: synNAPS2 variant R44A (designed binder)
chain: RGSHHHHHHGSMVKVKFKYKGEEKEVDTSKIVWIGRFGKSVYFRYDDNGKTGAGAVYEKDAPKELLDMLARAEREKK
binding result [16]: no binding | Binding (OD 450 nm) [17]: 0 OD 450 nm

B20: synNAPS2 variant S29A (designed binder)
chain: RGSHHHHHHGSMVKVKFKYKGEEKEVDTSKIVWIGRFGKAVYFRYDDNGKTGAGRVYEKDAPKELLDMLARAEREKK
binding result [16]: no binding | Binding (OD 450 nm) [17]: 0 OD 450 nm

B21: synNAPS2 variant W22A (designed binder)
chain: RGSHHHHHHGSMVKVKFKYKGEEKEVDTSKIVAIGRFGKSVYFRYDDNGKTGAGRVYEKDAPKELLDMLARAEREKK
binding result [16]: no binding | Binding (OD 450 nm) [17]: 0 OD 450 nm

B22: synNAPS2 variant Y31A (designed binder)
chain: RGSHHHHHHGSMVKVKFKYKGEEKEVDTSKIVWIGRFGKSVAFRYDDNGKTGAGRVYEKDAPKELLDMLARAEREKK
binding result [16]: no binding | Binding (OD 450 nm) [17]: 0 OD 450 nm

B23: synNAPS-6 ligand (designed binder)
chain: MVKVKFMRWGEEKEVDTSKITYVTRWGKTVIFYYDDNGKKGHGSVLEKDAPKELLDMLARAEREKK
binding result [1]: binds
